Measured values: paper PMC3234751

Target: GFP-tagged IQGAP1 lacking IQ domains (IQGAPΔIQ) (UniProt P46940)
Assay: co-IP

UniProt P46940, sequence (P46940 whole entry, stated change not applied, the tested form may be a part): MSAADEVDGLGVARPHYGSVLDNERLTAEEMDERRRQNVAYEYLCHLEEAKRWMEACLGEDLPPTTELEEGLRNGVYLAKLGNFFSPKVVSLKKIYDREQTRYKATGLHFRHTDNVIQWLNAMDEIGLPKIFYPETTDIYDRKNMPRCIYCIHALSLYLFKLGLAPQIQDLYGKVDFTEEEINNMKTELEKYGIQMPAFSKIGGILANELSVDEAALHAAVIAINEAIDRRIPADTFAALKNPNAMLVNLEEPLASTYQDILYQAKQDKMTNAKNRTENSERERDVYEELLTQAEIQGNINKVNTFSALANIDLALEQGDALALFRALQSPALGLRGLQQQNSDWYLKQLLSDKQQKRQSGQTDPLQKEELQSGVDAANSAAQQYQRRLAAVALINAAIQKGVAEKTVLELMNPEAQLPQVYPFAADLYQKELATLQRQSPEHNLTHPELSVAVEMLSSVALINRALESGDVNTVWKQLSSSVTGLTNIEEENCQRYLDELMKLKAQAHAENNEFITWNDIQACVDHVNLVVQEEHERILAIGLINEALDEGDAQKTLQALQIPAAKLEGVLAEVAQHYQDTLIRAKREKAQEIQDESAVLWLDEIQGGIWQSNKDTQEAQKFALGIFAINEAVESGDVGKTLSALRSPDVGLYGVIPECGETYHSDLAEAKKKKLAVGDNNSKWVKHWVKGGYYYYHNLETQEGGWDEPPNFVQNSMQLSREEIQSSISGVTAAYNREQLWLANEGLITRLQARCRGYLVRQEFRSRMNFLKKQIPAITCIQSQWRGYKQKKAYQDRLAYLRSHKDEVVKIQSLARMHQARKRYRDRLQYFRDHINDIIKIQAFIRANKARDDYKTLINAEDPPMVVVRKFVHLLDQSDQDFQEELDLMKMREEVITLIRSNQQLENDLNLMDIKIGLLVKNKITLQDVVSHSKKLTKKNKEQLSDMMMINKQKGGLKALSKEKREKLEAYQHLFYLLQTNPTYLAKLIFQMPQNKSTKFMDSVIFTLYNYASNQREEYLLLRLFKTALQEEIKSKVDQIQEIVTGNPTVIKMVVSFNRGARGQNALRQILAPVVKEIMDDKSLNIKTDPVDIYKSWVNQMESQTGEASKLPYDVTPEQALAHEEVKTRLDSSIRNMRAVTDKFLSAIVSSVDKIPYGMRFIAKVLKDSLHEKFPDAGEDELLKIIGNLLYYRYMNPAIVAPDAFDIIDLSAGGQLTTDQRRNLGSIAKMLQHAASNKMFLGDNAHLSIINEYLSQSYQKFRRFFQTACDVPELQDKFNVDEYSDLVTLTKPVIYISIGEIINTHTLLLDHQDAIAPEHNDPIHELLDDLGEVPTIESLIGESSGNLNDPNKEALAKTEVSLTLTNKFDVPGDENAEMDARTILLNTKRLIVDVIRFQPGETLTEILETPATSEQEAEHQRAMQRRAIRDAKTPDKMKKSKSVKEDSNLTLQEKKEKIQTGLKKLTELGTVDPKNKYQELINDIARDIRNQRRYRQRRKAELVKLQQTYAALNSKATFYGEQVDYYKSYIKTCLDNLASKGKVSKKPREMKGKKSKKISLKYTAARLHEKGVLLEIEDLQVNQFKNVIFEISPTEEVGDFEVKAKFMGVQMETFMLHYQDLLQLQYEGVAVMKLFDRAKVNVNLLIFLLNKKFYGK

## AKAP220, endogenous in COS cells (natural protein)
  fold enhancement in binding (densitometry): 3.6 fold
